This is an account of results in article PMC3488230.

Targets include Mfd WA550 (Escherichia coli, UniProt P30958 1-1148, W550A); Mfd D7AAA (Escherichia coli, UniProt P30958 1-1148, E1045A;D1048A;R1049A); Mfd WA550 RA953 (Escherichia coli, UniProt P30958 1-1148, W550A;R953A); Mfd RA953 (Escherichia coli, UniProt P30958 1-1148, R953A).
Assay in all cases: EMSA
A general note: A gel shift assay detects complexes by their altered migration in electrophoresis.

B1: 50 bp oligonucleotide duplex (dsDNA)
DNA 1: CTCATACGACGCTGTCGATCCAGTCACTGTCATGCGCTATCCGATCCTAG
DNA 2: CTAGGATCGGATAGCGCATGACAGTGACTGGATCGACAGCGTCGTATGAG
Take B1: the binding result with Mfd WA550 is “binds”; with Mfd D7AAA, “binds”; with Mfd WA550 RA953, “no binding”; in the data set with Mfd RA953, “binds”.
